The source of these data is paper PMC6276879 (The EMBO Journal, 2018).

The target in the assay is T1, phosphorylated ubiquitin (UniProt P0CG48 1-76, phosphorylated by PINK1 (pUb); the residue is not given).
T1 construct: ubiquitin, phosphorylated by PINK1 (pUb); also called pUb; phospho-ubiquitin; source: E. coli BL21(DE3)CodonPlus-RIL; phosphorylated with Pediculus humanus PINK1, purified (Superdex 75)
The experiment in a line: SEC; 1.5-fold excess pUb over R0RBR in 20 mM Tris, 75 mM NaCl, 250 uM TCEP, pH 8; 1:1 complex purified on Superdex 75 10/300. As to conditions: both partners purified.

B1: R0RBR parkin (141-465) (domain or fragment, human, UniProt O60260 141-465, looked up)
chain: SIYNSFYVYCKGPCQRVQPGKLRVQCSTCRQATLTLTQGPSCWDDVLIPNRMSGECQSPHCPGTSAEFFFKCGAHPTSDKETSVALHLIATNSRNITCITCTDVRSPVLVFQCNSRHVICLDCFHLYCVTRLNDRQFVHDPQLGYSLPCVAGCPNSLIKELHHFRILGEEQYNRYQQYGAEECVLQMGGVLCPRPGCGAGLLPEPDQRKVTCEGGNGLGCGFAFCRECKEAYHEGECSAVFEASGTTTQAYRVDERAAEQARWEAASKETIKKTTKPCPRCHVPVEKNGGCMHMKCPQPQCRLEWCWNCGCEWNRVCMGDHWFDV
notes: parkin, human, residues 141-465 (R0RBR: RING0-RING1-IBR-RING2(Rcat)); also called R0RBR C-terminal region of parkin; source: E. coli BL21(DE3), purified (HisTrap, Ulp1 cleavage, HisTrap, Superdex 75); not shown: His-smt3, N-terminal, cleaved
In the case of B1, the binding result is reported as “binds”.
